What was measured:
[1] = molecular target: full length human TL1A expressed on HEK293 cells (human) (UniProt O95150); test: flow, HEK293/hTL1A, isotype control 1 ug/ml in place of anti-hTL1A (background; same value as r16c2, printed under column 1725P)
[2] = molecular target: full length human TL1A expressed on HEK293 cells (human) (UniProt O95150); test: flow, HEK293/hTL1A, isotype control 1 ug/ml in place of anti-hTL1A (background; same value as r16c2, printed under column 1742P)
[3] = molecular target: full length human TL1A expressed on HEK293 cells (human) (UniProt O95150); test: flow, HEK293/hTL1A, isotype control 1 ug/ml in place of anti-hTL1A (background; same value as r16c2, printed under column 1805N)
[4] = molecular target: full length human TL1A expressed on HEK293 cells (human) (UniProt O95150); test: flow, HEK293/hTL1A, isotype control 1 ug/ml in place of anti-hTL1A (background; same value as r16c2, printed under column 1804N)
[5] = molecular target: full length human TL1A expressed on HEK293 cells (human) (UniProt O95150); test: flow, HEK293/hTL1A, isotype control in place of anti-hTL1A (background; columns c8-c9)
[6] = molecular target: full length human TL1A expressed on HEK293 cells (human) (UniProt O95150); test: flow, HEK293/hTL1A, isotype control 1 ug/ml in place of anti-hTL1A (background; same value as r16c8, printed under column 1745P)
[7] = molecular target: full length human TL1A expressed on HEK293 cells (human) (UniProt O95150); test: flow, HEK293/hTL1A, isotype control 1 ug/ml in place of anti-hTL1A (background; same value as r16c2, printed under column 1817N)
[8] = molecular target: full length human TL1A expressed on HEK293 cells (human) (UniProt O95150); test: flow, HEK293/hTL1A, isotype control in place of anti-hTL1A (background; columns c2-c7)

Chain of full length human TL1A expressed on HEK293 cells (human) (O95150 whole entry): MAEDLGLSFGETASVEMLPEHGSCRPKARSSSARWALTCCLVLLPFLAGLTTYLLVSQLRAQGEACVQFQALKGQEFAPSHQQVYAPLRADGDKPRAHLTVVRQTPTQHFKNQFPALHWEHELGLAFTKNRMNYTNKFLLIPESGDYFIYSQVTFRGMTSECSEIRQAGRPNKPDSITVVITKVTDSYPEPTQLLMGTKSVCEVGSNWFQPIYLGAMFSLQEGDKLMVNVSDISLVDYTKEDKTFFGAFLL

MFI [1]: 27.5 | MFI [2]: 27.5 | MFI [3]: 27.5 | MFI [4]: 27.5 | MFI [5]: 17.9 | MFI [6]: 17.9 | MFI [7]: 27.5 | MFI [8]: 27.5
Substance: negative isotype control antibody (human IgG4)

— patent US20140120109A1
